We go through two molecules from publication PMC6219536, “Strategic single point mutation yields a solvent- and salt-stable transaminase from Virgibacillus sp. in soluble form” (Scientific Reports, 2018).

In assay [1] the target is VbTA T16F (transaminase from Virgibacillus sp. 21D, T16F mutant) (Virgibacillus sp. 21D). Kind of assay: SEC; Superdex 200 (10/300) GL, 20 mM phosphate buffer pH 8.0, 150 mM NaCl, 0.2 mL/min, 4 °C, calibrated with MW markers.
Assay [2] has as its target T1, VbTA T16F (Virgibacillus pantothenticus, UniProt A0A4P1LYG1).
T1 construct: N-terminal His-tag (pET100-D-TOPO), codon-optimised, E. coli BL21(DE3), His-trap purified; native 448 residues (1350 bp); homodimer 104 kDa; residues 2-444 in crystal
Kind of assay: X-ray crystal structure, […] Å. It counts as binding. To be noted: active site; non-covalent, no aldimine bond with K273.

T1 sequence (A0A4P1LYG1 entry or part of it, stated change not applied): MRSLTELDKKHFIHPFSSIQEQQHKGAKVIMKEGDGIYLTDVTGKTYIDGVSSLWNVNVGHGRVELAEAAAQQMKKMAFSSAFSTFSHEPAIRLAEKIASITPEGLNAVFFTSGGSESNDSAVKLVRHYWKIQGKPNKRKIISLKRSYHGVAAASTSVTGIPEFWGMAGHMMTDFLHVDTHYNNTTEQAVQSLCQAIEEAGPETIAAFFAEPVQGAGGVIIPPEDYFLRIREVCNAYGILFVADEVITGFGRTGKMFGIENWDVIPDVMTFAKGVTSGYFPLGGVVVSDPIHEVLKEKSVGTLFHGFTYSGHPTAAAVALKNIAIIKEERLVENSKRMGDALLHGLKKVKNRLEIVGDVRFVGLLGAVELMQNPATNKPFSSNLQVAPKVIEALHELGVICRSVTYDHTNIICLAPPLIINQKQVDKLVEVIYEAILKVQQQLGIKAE

As usually defined, the stoichiometry N is the number of molecules, sites or subunits per partner or assembly. For “VbTA T16F (transaminase from Virgibacillus sp. 21D, T16F mutant) (enzyme)”, the stoichiometry N in assay [1] stood at 2.

`Cc1ncc(COP(=O)(O)O)c(C=O)c1O` [PLP]: in assay [2], the “X-ray crystal structure, 2.0 Å” value is on record as “One molecule of PLP was bound at the active site”.
